Assay results published in US20050070001A1, “Xylosyltransferase and isoforms thereof” (priority 1999, published 2005).

Molecular target: T1, XT-II (Homo sapiens, UniProt Q9H1B5, R305T)
T1 construct: polyhistidine leader of vector pcDNA4/HisMax-TOPO (own knowledge of the vector); made in house; host or cells: CHO-K1, transient transfection with pCG226-XT-II; medium treated with anti-Xpress antibody and protein G agarose beads
T1 sequence (Q9H1B5 46-865 R305T): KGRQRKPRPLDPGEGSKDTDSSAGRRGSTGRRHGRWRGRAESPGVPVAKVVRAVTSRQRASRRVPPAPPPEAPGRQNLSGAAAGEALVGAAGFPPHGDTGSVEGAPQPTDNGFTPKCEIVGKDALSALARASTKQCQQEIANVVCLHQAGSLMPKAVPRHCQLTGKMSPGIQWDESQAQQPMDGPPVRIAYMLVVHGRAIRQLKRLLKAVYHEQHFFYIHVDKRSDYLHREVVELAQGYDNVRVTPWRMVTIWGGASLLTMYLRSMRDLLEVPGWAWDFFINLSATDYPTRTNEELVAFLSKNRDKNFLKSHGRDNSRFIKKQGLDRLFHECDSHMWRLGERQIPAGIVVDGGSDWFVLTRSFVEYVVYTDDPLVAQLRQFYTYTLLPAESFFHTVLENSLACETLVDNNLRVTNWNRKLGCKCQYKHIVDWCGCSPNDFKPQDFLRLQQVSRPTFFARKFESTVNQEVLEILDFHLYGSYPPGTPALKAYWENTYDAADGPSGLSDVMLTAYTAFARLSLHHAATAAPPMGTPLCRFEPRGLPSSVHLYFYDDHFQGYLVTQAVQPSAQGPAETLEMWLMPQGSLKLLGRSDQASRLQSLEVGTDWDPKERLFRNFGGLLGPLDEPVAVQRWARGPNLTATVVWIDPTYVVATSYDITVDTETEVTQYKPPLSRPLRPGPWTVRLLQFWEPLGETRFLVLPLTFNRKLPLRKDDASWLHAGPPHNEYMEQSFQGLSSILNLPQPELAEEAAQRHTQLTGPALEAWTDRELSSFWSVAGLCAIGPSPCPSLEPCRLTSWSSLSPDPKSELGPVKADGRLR
Test: XT activity assay of XT-II fused to aminoterminal peptide tag, expressed in CHO-K1 cells
Format: biochemical
Text: The degenerate primers PFF-sense and Lysc-inv1 which were designed upon the amino acid sequence of proteolytic cleaved peptides of human XT-I were used in a PCR reaction with first strand cDNA of placenta poly(A)^+ mRNA as template. […] To clone the complete coding sequence of the novel cDNA, the RACE strategy was employed. The cDNA finally obtained was 3608 bp (FIG. 8A) and contained a single open reading frame encoding a protein of 865 amino acids with a molecular mass of 97.000. The 3′-untranslated region is 850 bp and a 5′-untranslated region of 149 bp was identified with an in-frame stop codon upstream of the ATG codon. […] No detectable XT activity was recovered by the affinity purification from a control transfection sample. The substrate specificity of the recombinant XT-I was similar to that of the XT-I isolated from human body fluids and cell culture supernatants.
Determination of XT activity. Determination of XT activity is based on the incorporation of [14C]-D-xylose into the recombinant bikunin according to a previously described method (Brinkmann et al., 1997, J. Biol. Chem., 272, 11171-11175). For analysis of the substrate specificity of the recombinant xylosyltransferases synthetic peptides containing the XT recognition sequence were used as acceptor. […] Incorporated radioactivity was determined by liquid scintillation counting. […]

B1: XT-II: human xylosyltransferase isoform 2, 865 amino acids, FIG. 8B (protein, UniProt Q9H1B5 1-865, looked up)
chain: MVASARVQKLVRRYKLAIATALAILLLQGLVVWSFSGLEEDEAGEKGRQRKPRPLDPGEGSKDTDSSAGRRGSTGRRHGRWRGRAESPGVPVAKVVRAVTSRQRASRRVPPAPPPEAPGRQNLSGAAAGEALVGAAGFPPHGDTGSVEGAPQPTDNGFTPKCEIVGKDALSALARASTKQCQQEIANVVCLHQAGSLMPKAVPRHCQLTGKMSPGIQWDESQAQQPMDGPPVRIAYMLVVHGRAIRQLKRLLKAVYHEQHFFYIHVDKRSDYLHREVVELAQGYDNVRVTPWRMVTIWGGASLLRMYLRSMRDLLEVPGWAWDFFINLSATDYPTRTNEELVAFLSKNRDKNFLKSHGRDNSRFIKKQGLDRLFHECDSHMWRLGERQIPAGIVVDGGSDWFVLTRSFVEYVVYTDDPLVAQLRQFYTYTLLPAESFFHTVLENSLACETLVDNNLRVTNWNRKLGCKCQYKHIVDWCGCSPNDFKPQDFLRLQQVSRPTFFARKFESTVNQEVLEILDFHLYGSYPPGTPALKAYWENTYDAADGPSGLSDVMLTAYTAFARLSLHHAATAAPPMGTPLCRFEPRGLPSSVHLYFYDDHFQGYLVTQAVQPSAQGPAETLEMWLMPQGSLKLLGRSDQASRLQSLEVGTDWDPKERLFRNFGGLLGPLDEPVAVQRWARGPNLTATVVWIDPTYVVATSYDITVDTETEVTQYKPPLSRPLRPGPWTVRLLQFWEPLGETRFLVLPLTFNRKLPLRKDDASWLHAGPPHNEYMEQSFQGLSSILNLPQPELAEEAAQRHTQLTGPALEAWTDRELSSFWSVAGLCAIGPSPCPSLEPCRLTSWSSLSPDPKSELGPVKADGRLR
modifications: full-length
**Q.** With B1 as the molecule, how does the “enzymatic transfer of xylose to the acceptor peptides” value read?
**A.** Its value is “no enzymatic transfer of xylose”.
